Measured values published in patent US20160089393A1, “COMPOSITION AND METHODS FOR COMBATING ANTIBACTERIAL RESISTANT BACTERIA” (BLUEBERRY THERAPEUTICS LIMITED, priority 2013, published 2016).

What was measured:
EMRSA-15 [1] = assay: Checkerboard synergy of PHMB and MecA peptides with oxacillin (FIC index); assay type: cell-based, methicillin-resistant Staphylococcus aureus (MRSA); settings: Staphylococcus aureus
Procedure: (§1) Synergy of PHMB and peptides (MecA3136, MecA3140) were tested by a standard checkerboard method of two-fold dilutions. PHMB and peptide were mixed at appropriate concentrations to a final volume of 30 μl in each well of a 96 well plate, and the mixtures were incubated at 20-22° C. for 30 mins before the addition of culture and oxacillin to a final volume of 150 μl. Plates were incubated and scored as above. FIC indices were calculated for wells without growth and containing the lowest combination of PHMB and peptide as follows: (A/MICA)+(B/MICB)=FICA+FICB=FIC index, where A is concentration of PHMB in combination, MICA is MIC of PHMB alone, B is concentration of peptide in combination, MICB is MIC of peptide alone. A control plate without oxacillin, and control wells of culture with increasing oxcaillin but without PHMB and peptide were included.

EMRSA-15 [2] = assay: Oxacillin sensitization: growth of EMRSA-15 with peptide, oxacillin and fixed PHMB; assay type: cell-based, methicillin-resistant Staphylococcus aureus (MRSA); parameters: key: 1 is growth; 0 is no growth; settings: MecA3136 0 uM, PHMB 0.25 μg/ml
Procedure: as §1, with “included. […]” for “included.”

EMRSA-15 [3] = assay: as above; assay type: cell-based, methicillin-resistant Staphylococcus aureus (MRSA); parameters: key: 1 indicates growth; 0 indicates no growth; settings: PHMB 1 ug/ml
Procedure: as §1, with “included. […]” for “included.”

EMRSA-15 [4] = assay: MIC by broth microdilution (antibacterial susceptibility test of EMRSA-15); assay type: cell-based, methicillin-resistant Staphylococcus aureus (MRSA); settings: Staphylococcus aureus, read-out: MIC of EMRSA-15 to oxacillin
Procedure: Antibacterial susceptibility test of EMRSA-15 was carried out according to NCCLS guidelines for broth micro broth dilution with modifications. EMRSA-15 was streaked from a −70° C. glycerol stock to Columbia base agar (Oxoid) supplemented with 5% horse blood (Oxoid) and 6 μg/ml oxacillin (Sigma), and incubated for 18-20 h at 33° C. Two to four bacterial colonies were inoculated into 3 ml Mueller Hinton broth (MHB, Oxoid) supplemented with 6 μg/ml oxacillin (Sigma) and incubated for 18-20 h at 33° C. with shaking at 180 rpm. Cultures were adjusted to OD625 0.08-0.1 (equivalent to 0.5 Mcfarland or 1-2×10^8 cfu/ml) with MHB and further diluted 1/50 to achieve a final concentration of 5×10^5 cfu per well. Susceptibility to either oxacillin, PHMB or peptides was tested by adding oxacillin (0-1024 μg/ml in MHB), PHMB (0-512 μg/ml in 1×PBS) or peptide (0-512 μg/ml in 1×PBS) to 75 μl of culture in a final volume of 150 μl per well. Plates were incubated at 33° C. for 24 h and growth was scored visually.

EMRSA-15 [5] = assay: Oxacillin sensitization: growth of EMRSA-15 with peptide, oxacillin and fixed PHMB; assay type: cell-based, methicillin-resistant Staphylococcus aureus (MRSA)
Procedure: as §1, with “included. […]” for “included.”

[6] = target: T1, MecA (Penicillin binding protein 2A, PBP2A) (Staphylococcus aureus, UniProt P07944); assay: In vitro binding to MecA and block of oxacillin binding; parameters: species or system methicillin-resistant Staphylococcus aureus (MRSA)
T1 construct: The primers were designed so that the first 23 amino acids at the N terminus were deleted; GST (N, cleaved yes); primer-encoded linker LEVLFQGP-M (my own translation of the forward primer); made in house; host or cells: Escherichia coli BL21(DE3)
Procedure: For inhibitor screening recombinantly expressed and purified PBP2a is immobilised using an affinity tag to the surface of the wells of a microtiter plate. The wells are then incubated with serially diluted solutions of the peptide aptamer or indeed any possible inhibitor of PBP2a, plus a PBP2a substrate, such as BIO-AMP (Bobba et al. 2011) at a fixed concentration in PBS. After approximately 15 min, the binding reactions are stopped, and the plates were developed as described (Bobba et al. 2011). The background levels of fluorescence from control reactions are subtracted and then the inhibitor binding data are calculated and plotted to determine the Ki^app of binding.

T1 sequence (P07944 24-670): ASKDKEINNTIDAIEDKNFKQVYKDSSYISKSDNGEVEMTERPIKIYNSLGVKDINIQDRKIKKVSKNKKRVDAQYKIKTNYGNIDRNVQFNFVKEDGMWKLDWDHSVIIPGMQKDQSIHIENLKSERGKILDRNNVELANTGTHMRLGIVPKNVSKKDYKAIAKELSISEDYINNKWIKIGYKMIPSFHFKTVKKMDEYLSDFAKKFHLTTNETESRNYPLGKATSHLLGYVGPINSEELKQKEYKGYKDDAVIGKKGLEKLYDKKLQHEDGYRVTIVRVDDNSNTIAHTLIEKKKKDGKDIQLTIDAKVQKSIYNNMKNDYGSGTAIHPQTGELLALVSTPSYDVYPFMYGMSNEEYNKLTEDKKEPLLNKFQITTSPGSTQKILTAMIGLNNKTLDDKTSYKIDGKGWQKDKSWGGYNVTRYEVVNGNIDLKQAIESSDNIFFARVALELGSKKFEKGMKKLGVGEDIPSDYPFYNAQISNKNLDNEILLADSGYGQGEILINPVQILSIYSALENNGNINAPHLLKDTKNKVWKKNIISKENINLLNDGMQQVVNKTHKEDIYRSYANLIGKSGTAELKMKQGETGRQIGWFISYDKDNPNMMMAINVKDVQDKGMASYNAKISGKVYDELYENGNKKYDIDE

`Cc1onc(-c2ccccc2)c1C(=O)N[C@@H]1C(=O)N2[C@@H]1SC(C)(C)[C@@H]2C(=O)O` [Oxacillin, oxacillin, reference compound] was tested, and the MIC (EMRSA-15 [1]; oxacillin alone, checkerboard set of experiments) was 256 µg/mL, the MIC (EMRSA-15 [1]; with PHMB and MecA3136 at certain concentrations) was 516 µg/mL and the “Growth of EMRSA-15” value (EMRSA-15 [2]; oxacillin 16 ug/ml) was 1. For the same molecule, the “Growth of EMRSA-15” value (EMRSA-15 [2]; oxacillin 32 ug/ml) was 1, the “Growth of EMRSA-15” value (EMRSA-15 [2]; oxacillin 64 ug/ml) was 1 and the “Growth of EMRSA-15” value (EMRSA-15 [2]; oxacillin 128 ug/ml) was 1. The “Growth of EMRSA-15” value (EMRSA-15 [2]; oxacillin 256 ug/ml) was 0, the “Growth of EMRSA-15” value (EMRSA-15 [3]; E1 0 ug/ml, oxacillin 8 ug/ml) was 1 and the “Growth of EMRSA-15” value (EMRSA-15 [3]; E1 0 ug/ml, oxacillin 16 ug/ml) was 1. The “Growth of EMRSA-15” value (EMRSA-15 [3]; E1 0 ug/ml, oxacillin 32 ug/ml) was 1, the “Growth of EMRSA-15” value (EMRSA-15 [3]; E1 0 ug/ml, oxacillin 64 ug/ml) was 1 and the “Growth of EMRSA-15” value (EMRSA-15 [3]; E1 0 ug/ml, oxacillin 128 ug/ml) was 0. For the same molecule, the “Growth of EMRSA-15” value (EMRSA-15 [3]; HIW 0 ug/ml, oxacillin 16 ug/ml) was 1, the “Growth of EMRSA-15” value (EMRSA-15 [3]; HIW 0 ug/ml, oxacillin 32 ug/ml) was 1 and the “Growth of EMRSA-15” value (EMRSA-15 [3]; HIW 0 ug/ml, oxacillin 64 ug/ml) was 0. It also gave an MIC (EMRSA-15 [4]; MHB + 0.25 μg/ml PHMB) of 256 µg/mL, an MIC (EMRSA-15 [4]; MHB + 176 μg/ml MecA3136) of 128 µg/mL and an MIC (EMRSA-15 [4]; MHB + 176 μg/ml MecA3140) of 128 µg/mL. The MIC (EMRSA-15 [4]; MHB) was 128 µg/mL.

B1: E1: MecA (PBP2A) binding peptide aptamer, Sequence ID No. 4; different scaffold to MecA3136 and MecA3140 (protein)
chain: ASAATGVRAVPGNENSLEIEELARFAVDEHNKKENALLEFVRVVKAKEQHWKAKLGHDTMYYLTLEAKDGGKKKLYEAKVWVKLIPTKDFHLNFKELQEFKPVGDAAAAHHHHHH
modifications: Peptide sequence E1
notes: different scaffold to MecA3136 and MecA3140
For B1, the “effect during the assay” value (EMRSA-15 [5]; oxacillin and 1 ug/ml PHMB) was “Sequence E1 is a different scaffold to MecA3136 and MecA3140, but in Table 11 shows a modest effect during the assay”, the “enhancement of oxacillin activity” value (EMRSA-15 [5]; with PHMB) was “Clear enhancement of oxacillin activity” and the “binding to MecA and block of oxacillin binding” value [6] was “bind to MecA and block oxycillin binding to MecA”. The “Growth of EMRSA-15” value (EMRSA-15 [3]; E1 5 ug/ml, oxacillin 0 ug/ml) was 1, the “Growth of EMRSA-15” value (EMRSA-15 [3]; E1 5 ug/ml, oxacillin 8 ug/ml) was 1 and the “Growth of EMRSA-15” value (EMRSA-15 [3]; E1 5 ug/ml, oxacillin 16 ug/ml) was 1. For the same molecule, the “Growth of EMRSA-15” value (EMRSA-15 [3]; E1 5 ug/ml, oxacillin 32 ug/ml) was 1, the “Growth of EMRSA-15” value (EMRSA-15 [3]; E1 5 ug/ml, oxacillin 64 ug/ml) was 0 and the “Growth of EMRSA-15” value (EMRSA-15 [3]; E1 5 ug/ml, oxacillin 128 ug/ml) was 0. For the same molecule, the “Growth of EMRSA-15” value (EMRSA-15 [3]; E1 10 ug/ml, oxacillin 0 ug/ml) was 1, the “Growth of EMRSA-15” value (EMRSA-15 [3]; E1 10 ug/ml, oxacillin 8 ug/ml) was 1 and the “Growth of EMRSA-15” value (EMRSA-15 [3]; E1 10 ug/ml, oxacillin 16 ug/ml) was 1. The “Growth of EMRSA-15” value (EMRSA-15 [3]; E1 10 ug/ml, oxacillin 32 ug/ml) was 1, the “Growth of EMRSA-15” value (EMRSA-15 [3]; E1 10 ug/ml, oxacillin 64 ug/ml) was 0 and the “Growth of EMRSA-15” value (EMRSA-15 [3]; E1 10 ug/ml, oxacillin 128 ug/ml) was 0. For the same molecule, the “Growth of EMRSA-15” value (EMRSA-15 [3]; E1 20 ug/ml, oxacillin 0 ug/ml) was 1, the “Growth of EMRSA-15” value (EMRSA-15 [3]; E1 20 ug/ml, oxacillin 8 ug/ml) was 1 and the “Growth of EMRSA-15” value (EMRSA-15 [3]; E1 20 ug/ml, oxacillin 16 ug/ml) was 1. For the same molecule, the “Growth of EMRSA-15” value (EMRSA-15 [3]; E1 20 ug/ml, oxacillin 32 ug/ml) was 0, the “Growth of EMRSA-15” value (EMRSA-15 [3]; E1 20 ug/ml, oxacillin 64 ug/ml) was 0 and the “Growth of EMRSA-15” value (EMRSA-15 [3]; E1 20 ug/ml, oxacillin 128 ug/ml) was 0.
